# Legend:
# Test in all cases: cell-based or functional assay
# [1] = target: mouse melanocortin-1 receptor (mouse) (UniProt Q01727)
# [2] = target: mouse melanocortin-5 receptor (mouse) (UniProt P41149)
# [3] = target: mouse melanocortin-3 receptor (mouse) (UniProt P33033)
# [4] = target: mouse melanocortin-4 receptor (mouse) (UniProt P56450)
# mouse melanocortin-4 receptor (mouse), sequence (P56450 whole entry): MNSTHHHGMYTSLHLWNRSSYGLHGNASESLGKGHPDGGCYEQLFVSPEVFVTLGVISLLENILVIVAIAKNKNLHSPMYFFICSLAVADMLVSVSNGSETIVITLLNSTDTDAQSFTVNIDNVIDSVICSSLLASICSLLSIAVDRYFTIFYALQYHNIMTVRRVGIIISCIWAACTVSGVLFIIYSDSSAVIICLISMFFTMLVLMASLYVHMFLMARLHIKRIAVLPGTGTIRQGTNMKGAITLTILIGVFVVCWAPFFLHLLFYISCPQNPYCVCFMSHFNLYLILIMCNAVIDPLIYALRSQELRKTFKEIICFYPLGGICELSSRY
# mouse melanocortin-3 receptor (mouse), sequence (P33033 whole entry): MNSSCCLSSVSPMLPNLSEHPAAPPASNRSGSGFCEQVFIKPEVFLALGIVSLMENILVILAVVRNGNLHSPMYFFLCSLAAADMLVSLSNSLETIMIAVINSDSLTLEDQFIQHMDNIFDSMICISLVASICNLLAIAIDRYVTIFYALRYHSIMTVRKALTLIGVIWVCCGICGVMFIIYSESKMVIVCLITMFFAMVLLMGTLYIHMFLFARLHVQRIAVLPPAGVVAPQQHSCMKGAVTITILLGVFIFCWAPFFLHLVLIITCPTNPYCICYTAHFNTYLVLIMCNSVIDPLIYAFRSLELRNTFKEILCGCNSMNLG
# mouse melanocortin-5 receptor (mouse), sequence (P41149 whole entry): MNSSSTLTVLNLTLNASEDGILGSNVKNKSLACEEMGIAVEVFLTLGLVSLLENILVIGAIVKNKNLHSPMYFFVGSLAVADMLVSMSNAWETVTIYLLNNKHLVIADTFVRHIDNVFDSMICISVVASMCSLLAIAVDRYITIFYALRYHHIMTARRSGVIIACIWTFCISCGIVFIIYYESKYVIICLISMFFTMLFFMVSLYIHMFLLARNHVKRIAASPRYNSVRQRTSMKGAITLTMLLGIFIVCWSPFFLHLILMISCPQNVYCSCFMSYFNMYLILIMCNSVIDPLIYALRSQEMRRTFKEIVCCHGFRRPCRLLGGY
# mouse melanocortin-1 receptor (mouse), sequence (Q01727 whole entry): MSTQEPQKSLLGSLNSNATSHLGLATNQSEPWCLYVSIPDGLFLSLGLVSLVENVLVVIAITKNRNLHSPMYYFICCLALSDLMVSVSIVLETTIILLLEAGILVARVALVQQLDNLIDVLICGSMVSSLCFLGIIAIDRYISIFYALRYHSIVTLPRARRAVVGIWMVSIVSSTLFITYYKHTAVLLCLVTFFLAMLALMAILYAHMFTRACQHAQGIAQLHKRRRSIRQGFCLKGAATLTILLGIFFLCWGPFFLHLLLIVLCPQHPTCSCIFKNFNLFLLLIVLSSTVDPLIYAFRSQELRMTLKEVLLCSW
Substance,EC50 (agonist) [1] [nM],EC50 (agonist) [2] [nM],EC50 (agonist) [3] [nM],pA2 (antagonist) [4]
MTII (peptide),0.02,–,–,–
NDP-MSH (peptide),–,0.071,0.098,–
hAGRP(109-118) decapeptide (from UniProt O00253 109-118),5120,> 100000,> 100000,6.8
